Reference: PMC12038257, “The transcription factor MdWRKY9 is involved in jasmonic acid-mediated salt stress tolerance in apple”

What follows are binders tested against MdWRKY9 (Malus domestica (apple)?, UniProt D9ZJG3 1-520) (assay: EMSA; EMSA buffer, salt, pH and temperature not given (refers to earlier method, ref. 35); GST added to equalize protein in JAZ assays). Conditions: protein: recombinant; tags: His (pET32a(+)); label: 3' biotin; blunt.
MdWRKY9, sequence (D9ZJG3 entry or part of it): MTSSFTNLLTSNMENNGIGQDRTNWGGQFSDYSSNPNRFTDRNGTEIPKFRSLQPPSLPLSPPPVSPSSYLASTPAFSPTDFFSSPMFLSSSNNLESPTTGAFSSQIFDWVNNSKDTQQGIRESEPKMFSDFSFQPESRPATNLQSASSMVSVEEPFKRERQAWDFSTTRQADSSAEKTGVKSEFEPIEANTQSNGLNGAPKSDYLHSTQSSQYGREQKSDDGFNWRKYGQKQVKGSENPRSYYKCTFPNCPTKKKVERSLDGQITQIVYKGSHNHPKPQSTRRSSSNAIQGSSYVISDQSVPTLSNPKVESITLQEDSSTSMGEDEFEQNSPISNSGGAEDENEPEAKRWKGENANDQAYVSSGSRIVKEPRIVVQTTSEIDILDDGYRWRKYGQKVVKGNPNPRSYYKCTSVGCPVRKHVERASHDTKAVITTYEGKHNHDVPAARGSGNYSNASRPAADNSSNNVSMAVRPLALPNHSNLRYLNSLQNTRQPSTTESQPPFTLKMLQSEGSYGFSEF

Row | Binder | binding result
1 | MdSOS3 W-box probe 1 (W4, -127) (dsDNA) DNA 1: TAGTGAAGCACATCCGCTCTAGTCAAAGCAGCTACGCTCACGCGTG DNA 2: CACGCGTGAGCGTAGCTGCTTTGACTAGAGCGGATGTGCTTCACTA | no binding
2 | MdNHX1 W-box W1 (-1255) (dsDNA) DNA 1: ATCATATTTTTACACTAAAAAGTCAATCTTGGTACTATTTATCTTA DNA 2: TAAGATAAATAGTACCAAGATTGACTTTTTAGTGTAAAAATATGAT | binds
3 | MdNHX1 W1 mutant probe (dsDNA) DNA 1: ATCATATTTTTACACTAAAAAGGAAATCTTGGTACTATTTATCTTA DNA 2: TAAGATAAATAGTACCAAGATTTCCTTTTTAGTGTAAAAATATGAT | no binding
4 | MdSOS2 W-box W2 (-149), probe 1 (dsDNA) DNA 1: TCACAGCCACGTGAATTGAATTGACCAATTTTCCAATTCTGTTTAT DNA 2: ATAAACAGAATTGGAAAATTGGTCAATTCAATTCACGTGGCTGTGA | binds
5 | MdSOS2 W2 mutant probe (dsDNA) DNA 1: TCACAGCCACGTGAATTGAATTTCCCAATTTTCCAATTCTGTTTAT DNA 2: ATAAACAGAATTGGAAAATTGGGAAATTCAATTCACGTGGCTGTGA | no binding
6 | MdSOS2 W-box W3 (-303), probe 2 (dsDNA) DNA 1: TATGAAAACTGGAACTTGGGTTGACTGAATTTACTTCTAATTTCAT DNA 2: ATGAAATTAGAAGTAAATTCAGTCAACCCAAGTTCCAGTTTTCATA | binds
7 | MdSOS2 W3 mutant probe (dsDNA) DNA 1: TATGAAAACTGGAACTTGGGTTTCCTGAATTTACTTCTAATTTCAT DNA 2: ATGAAATTAGAAGTAAATTCAGGAAACCCAAGTTCCAGTTTTCATA | no binding
